This note sets out measurements from the supplement of paper PMC12042874.

± gives the uncertainty stated by the source.

The series in a line: amyloid nucleation score (Sup35N fusion, yeast selection) (log enrichment); library NNK3; higher = more nucleation; inactive = no reads after selection. Summed up: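 The nucleation score, computed with DiMSum, is the log enrichment of output over input reads, centred on the mode score of non-aggregating sequences. Sequences with under 100 input reads were dropped. Reads were generated by Illumina sequencing of plasmid inserts from psi-negative yeast with Sup35N fused to peptides of 20 random codons, induced with 100 μM copper sulfate for 24 hours and grown 7 days at 30°C on medium lacking adenine and uracil.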
YFGLALKSFGTLM came in with an amyloid nucleation score of 0.876 ± 0.19.
For GKSTYVLFGKWNTEKTRNRG the value was “inactive”.
For the substance ADVLFKFNSDMRRS, the amyloid nucleation score result is “inactive”.
Consider MRFDNVTMRVLLCFS, for which the amyloid nucleation score result is “inactive”.
For FWTLDRLRMLYVAILQPWSD the value was “inactive”; for GDFTSLDVVYYGNDCTLF, “inactive”.
For CLIVTLTHMS the value was 1.64 ± 0.062; for LHVLDYDPDLRCFQMLYMCG, “inactive”.
Take LYRAIIIRRWFGNMGDFHKP: the amyloid nucleation score result was “inactive”.
The entry for ILGEWLFCSIIFWGVWDYAG is “inactive”; for LLVMWWYRLTGPDGVSNWR it is “inactive”.
As for ICEPADQV, the amyloid nucleation score result is “inactive”.
For PSVPSNHLDCYLTWGT the value was “inactive”; for FTINV, “inactive”.
On to GPSLVVNDLFGFCMVMYLND, for which the amyloid nucleation score entry was “inactive”.
NNYVMA: the amyloid nucleation score was -0.231 ± 1.1.
The entry for VLSCVAIRSYILHKVSVGIC is “inactive”; for SAEVATFFNCKYHSSLSILT it is “inactive”.
For VPRMSALRESFHKDNS the value was “inactive”; for SRFYSDTQPTCGWKRVESRG, -0.897 ± 2.5; for RLFDLVYSGLVFRKHSHTAM, “inactive”.
The entry for MDRASVCLEGGMSMVWLRYV is “inactive”.
As for VTLQSSSQVSSCVNNSR, the amyloid nucleation score entry is “inactive”.
The entry for CVVYLWWLVSASMLCSNWFG is “inactive”; for TNQALTMNCHPG it is “inactive”.
For GLSVVYSNRYNTWVRDLKDW the value was 0.376 ± 0.22.
As for RKFTVSISRGNWSHAWTYSE, the amyloid nucleation score entry is “inactive”.
The entry for TLGIWRDYSYKTILRRWDDR is “inactive”.
The entry for NFWEYQSECWRVTQW is “inactive”; for LLYSLWCEMMYPSKGARM it is “inactive”; for FNDVLMAVITLSVIDTLMWT it is “inactive”.
The entry for NQQWIP is “inactive”; for DYHLQLKMLRPW it is “inactive”.
Take LPYTGIYSRFRDRLWCVLKT: the amyloid nucleation score result is “inactive”.
For LYCGDSI the value was “inactive”; for CVWML, “inactive”; for EIFGSISG, “inactive”.
The figure for TSDIDIY is -0.397 ± 0.73.
For GLKNRVSGPPFASTYFWSAL, the amyloid nucleation score result is “inactive”.
The figure for YIYTFYSVSY is 0.201 ± 0.17; for SAYRVKMHKRRKAESVLGFR it is “inactive”; for DSFGLFCYTYLWCLWQANDK it is 2.05 ± 0.097.
For PCPSEFDLSGRYRAAWVRCS the value was “inactive”; for RVKSVTVMMIFDNYSCMVCN, 1.93 ± 0.069.
The entry for KHLGKAKSSGST is “inactive”; for ELDMLRYEVMVCNHDDGLCE it is “inactive”.
In the case of DLVNVYVLPLVS, the amyloid nucleation score entry was “inactive”.
The figure for SLMTVRVNHK is 0.621 ± 0.2; for HIFHQIKANDHAIFLGNVSG it is “inactive”; for MGPWCRKWIICLTRVSYRVG it is “inactive”.
For YYCDLRSYIRSPG the value was “inactive”; for DAYGLYYTSYYPGT, “inactive”.
For LLIDCYVDYSC the value was 0.105 ± 0.24.
For TLDPNIHESFFSAACWYSKA, the amyloid nucleation score entry is “inactive”.
Turning to SQLQVISKIENSRKVIQRSS, the amyloid nucleation score result was “inactive”.
The entry for FEHPHGGVNS is “inactive”; for ILLIVL it is 1.68 ± 0.061; for ACYNSKRMGGMYNSRVLDHD it is “inactive”.
TLLFSIYCIFLNPSVQRRFE: the amyloid nucleation score was -0.028 ± 0.43.
For the substance WLNKWTHGVIANFYVVSGHP, the amyloid nucleation score came out at 1.64 ± 0.075.
The entry for GSATCAS is “inactive”.
The entry for YCTYN is “inactive”; for PTITMANKDRFLRRCSPNGG it is “inactive”; for ARVVVG it is “inactive”.
For MTILYYDS the value was “inactive”; for SFVYCIVYLQSPFVLSTMVG, 2.62 ± 0.078.
Turning to FFKVSPMYY, the amyloid nucleation score entry is “inactive”.
For AQFVWMKLHICRTDLGESH the value was “inactive”; for MLDISMEVSGCSILS, -0.261 ± 0.52.
Turning to KHSVSLECRIRSAGDTVGWF, the amyloid nucleation score entry is “inactive”.
For MCWLLLIRWDK the value was “inactive”; for HSRVWGKYSGSLPGKM, “inactive”; for YEARSWE, “inactive”.
For HVTQLNGVAYSCEI the value was “inactive”.
As for LSWTYGRMGLRRLGGTGCYG, the amyloid nucleation score entry is “inactive”.
For PNRQDYIVTYLGIPNFLSTW, the amyloid nucleation score result was “inactive”.
With YSTNVSYY, the amyloid nucleation score entry was “inactive”.
For RFYTSCVCHHLLIYYLIGSS the value was “inactive”; for CILKHSGR, “inactive”; for LFNPMKTVYWHNLAIWHYDV, “inactive”.
For TQWYS the value was “inactive”; for ITLLCTLYYGQPTLGVDLVL, “inactive”.
The entry for ESWKWYQYSVQWAWYEHPHS is “inactive”.
For SSIGCPYLSYDYCFPTMWIW, the amyloid nucleation score entry is “inactive”.
For SIRYFRLSGMMSMYFFCFVV the value was 0.952 ± 0.14; for EFGDFVDKASMLNIWDGIVG, “inactive”; for DMGTYVSCRRIFKNGRYSGC, “inactive”.
On to CIKIIIFNVERLVALIIVSL, for which the amyloid nucleation score entry was “inactive”.
The entry for TCSRIQLISNWFRVQLKSNV is “inactive”; for LNLHSSLGMFASLGDMIRVT it is “inactive”.
The figure for GLYPQWLGDGRWLSSGLATL is 0.138 ± 0.33; for LYVLWRLGKQCHTFWFFSSI it is 0.265 ± 0.44; for WFCLRTTVTPLDGFVLWYWE it is “inactive”.
The entry for LRKSLTEQPPKGLASRLYWS is “inactive”; for SVPMVLFRASLVMYGLMLSQ it is 0.835 ± 0.12.
NGNFWCFVLVLS: the amyloid nucleation score stood at 0.595 ± 0.24.
For PAVQGSKDAASSAERCACQR the value was “inactive”.
The entry for NISVLIRCLWNFSEGKAFLA is “inactive”; for DFILVSLLREDTNVGTACRV it is “inactive”; for TSHPYNHVESSG it is 0.972 ± 0.095.
The entry for SDIIM is “inactive”; for GTYVKLLEVFTSFSWFRRFF it is “inactive”; for WRHDMSIFQAQLSTLVGI it is “inactive”.
On to VFVVLLALSYGSDNTV, for which the amyloid nucleation score result was “inactive”.
The entry for EGRRIAGNARDRDHDLQVGR is “inactive”; for RIVGIYKGLLAD it is “inactive”.
For YSQVVW the value was “inactive”; for VSYTRTIPLKGSNLMLIWF, “inactive”; for HWFTLSKYGR, “inactive”.
For ITIGTTIGDLSYR the value was “inactive”.
Regarding IVQYELTACDESAVKWIGMP, the amyloid nucleation score result is “inactive”.
The entry for RKKTNCHINYFMDALFERLA is “inactive”; for TIKYVDRPARTGGEALAIVV it is -0.323 ± 1.
The entry for YWMMLRT is “inactive”; for AYWRREKMCSVPGGSWSGWV it is “inactive”; for IIAPSGVGWYWR it is “inactive”.
For QWKKWLDTACKWVGVGGTIR the value was “inactive”; for YSNVNALISSTSLYLCCCML, 0.644 ± 0.23.
In the case of EHNYSTASITSTLSTPNRAI, the amyloid nucleation score entry was “inactive”.
For VLSVLFFLLLSPPIRFQVEG the value was “inactive”.
VFSFRTYNLYGEDNEQLLHW: the amyloid nucleation score result was “inactive”.
The entry for DRDGQPAWHLS is “inactive”; for FRQYKSPGDLPRMDAVACGK it is -0.832 ± 2.5.
The entry for VFLPGRSIKWFLMAEKLRNH is “inactive”.
The entry for IAQIFLACRTVT is “inactive”; for TLLYTI it is “inactive”; for GSMFFNVC it is 0.254 ± 0.28.
In the case of HGWSS, the amyloid nucleation score result is “inactive”.
For VLDLTKYSFLTI the value was “inactive”; for DLRVPLNTFRNYHVSRELVR, “inactive”; for GMRFRCKRYVCVLQ, -0.078 ± 0.98.
For FLTRIHFLCTCVRRNG the value was 1.37 ± 0.1.
The entry for FFQDQFVDWLDYTVLRI is “inactive”.
